Data reported in US20220002426A1 (BIOINVENT INTERNATIONAL, published 2022).

T1: hTNFRII (Sinobioologicals Cat nr10414-H08H) (human, UniProt P20333 23-257)
T1 construct: bought; also called immobilized TNFR2
T1 sequence (looked up): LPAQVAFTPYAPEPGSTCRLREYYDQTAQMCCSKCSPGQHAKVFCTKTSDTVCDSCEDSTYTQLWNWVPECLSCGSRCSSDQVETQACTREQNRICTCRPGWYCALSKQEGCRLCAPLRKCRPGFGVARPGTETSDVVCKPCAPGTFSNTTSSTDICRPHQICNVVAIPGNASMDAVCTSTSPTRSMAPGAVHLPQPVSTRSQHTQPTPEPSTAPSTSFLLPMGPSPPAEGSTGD

T2: recombinant human TNFR2-Fc protein (Sino Biological) (human, UniProt P20333 23-257, limits assumed)
T2 construct: bought; also called human TNFR2 protein; not shown: Fc part of the bought fusion protein; not described
T2 sequence (looked up): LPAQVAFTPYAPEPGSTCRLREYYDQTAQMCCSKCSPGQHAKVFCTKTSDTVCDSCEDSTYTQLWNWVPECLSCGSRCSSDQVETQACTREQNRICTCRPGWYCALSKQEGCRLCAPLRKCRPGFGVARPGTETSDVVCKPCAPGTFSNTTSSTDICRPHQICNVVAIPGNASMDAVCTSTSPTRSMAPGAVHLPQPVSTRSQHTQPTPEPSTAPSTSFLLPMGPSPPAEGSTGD

T3: wild type, full length human TNFR2 (on cells) (human, UniProt P20333 23-461)
T3 construct: whole, on cells; also called hTNFR2; TNFRII
T3 sequence (looked up): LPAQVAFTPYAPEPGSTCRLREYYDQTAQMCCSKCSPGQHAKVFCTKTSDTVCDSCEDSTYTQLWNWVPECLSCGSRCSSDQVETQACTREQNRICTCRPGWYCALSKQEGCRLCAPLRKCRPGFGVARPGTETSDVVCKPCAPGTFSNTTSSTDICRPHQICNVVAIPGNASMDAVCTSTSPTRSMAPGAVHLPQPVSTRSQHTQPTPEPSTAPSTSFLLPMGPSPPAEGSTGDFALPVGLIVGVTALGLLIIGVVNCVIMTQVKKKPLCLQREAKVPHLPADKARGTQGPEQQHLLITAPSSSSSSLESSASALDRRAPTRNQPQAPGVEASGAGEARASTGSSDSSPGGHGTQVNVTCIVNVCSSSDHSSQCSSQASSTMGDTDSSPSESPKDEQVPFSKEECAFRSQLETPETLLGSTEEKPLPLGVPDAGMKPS

B1: 001-C07 (antibody, V domains shown)
VH: EVQLLESGGGLVQPGGSLRLSCAASGFTFSSYEMNWVRQAPGKGLEWVSTITGGGSIYDANSVQGRFTISRDNSKNTLYLQMNSLRAEDTAVYYCARDSTYHSSGYYYDVFDIWGQGTLVTVSS
VL: not shown
notes: IgG
B2: 005-F10 (antibody, V domains shown)
VH: EVQLLESGGGLVQPGGSLRLSCAASGFTFSDYYMTWIRQAPGKGLEWVSGISGSGGYIHYADSVKGRFTISRDNSKNTLYLQMNSLRAEDTAVYYCAREGLLPDAFDIWGQGTLVTVSS
VL: not shown
notes: IgG
B3: 004-E08 (antibody, V domains shown)
VH: EVQLLESGGGLVQPGGSLRLSCAASGFTFSRYWMHWVRQVPGKGLEWVSGISDSGVVTYYADSVKGRFTISRDNSKNTLYLQMNSLRAEDTAVYYCARAQSVAFDIWGQGTLVTVSS
VL: QSVLTQPPSASGTPGQRVTISCSGSSSNIGAGHDVHWYQQLPGTAPKLLIYYDDLLPSGVPDRFSGSKSGTSASLAISGLRSEDEADYYCAAWDDSLSGWVFGGGTKLTVLG
notes: IgG
B4: 001-H10 (antibody, V domains shown)
VH: EVQLLESGGGLVQPGGSLRLSCAASGFTFDDYGMSWVRQAPGKGLEWVSVIYSGGSTYYADSVKGRFTISRDNSKNTLYLQMNSLRAEDTAVYYCARDRSSSWYRDGMDVWGQGTLVTVSS
VL: QSVLTQPPSASGTPGQRVTISCTGSSSNIGAGYDVHWYQQLPGTAPKLLIYGNSNRPSGVPDRFSGSKSGTSASLAISGLRSEDEADYYCAAWDDSLSGWVFGGGTKLTVLG
notes: IgG
B5: 001-E06 (antibody, V domains shown)
VH: EVQLLESGGGLVQPGGSLRLSCAASGFTFSSNYMSWVRQAPGKGLEWVALIWYDGSNKYYADSVKGRFTISRDNSKNTLYLQMNSLRAEDTAVYYCAKDPLFDSWGQGTLVTVSS
VL: QSVLTQPPSASGTPGQRVTISCTGRSSNIGAGYDVHWYQQLPGTAPKLLIYDNNKRPSGVPDRFSGSKSGTSASLAISGLRSEDEADYYCAAWDDSLNGPVFGGGTKLTVLG
notes: IgG
B6: 001-C08 (antibody, V domains shown)
VH: EVQLLESGGGLVQPGGSLRLSCAASGFTFSNAWMSWVRQAPGKGLEWVSGISSSGSSAYYADSVKGRFTISRDNSKNTLYLQMNSLRAEDTAVYYCARHYYYHIAGYYYDTFDIWGQGTLVTVSS
VL: not shown
notes: IgG; also called 1-008
B7: 001-B11 (antibody, V domains shown)
VH: EVQLLESGGGLVQPGGSLRLSCAASGFTFSSYSMNWVRQAPGKGLEWVAVMSYDEYNTYYADSVKGRFTISRDNSKNTLYLQMNSLRAEDTAVYYCAKGFYGDYPLWDYWGQGTLVTVSS
VL: not shown
notes: IgG
B8: 001-H09 (antibody, V domains shown)
VH: EVQLLESGGGLVQPGGSLRLSCAASGFTFSSYAMSWVRQAPGKGLEWVATISYHGSDKDYADSVKGRFTISRDNSKNTLYLQMNSLRAEDTAVYYCARDANYHSSGYYYDVFDIWGQGTLVTVSS
VL: not shown
notes: IgG
B9: 001-B09 (antibody, V domains shown)
VH: EVQLLESGGGLVQPGGSLRLSCAASGFTFSRHAMNWVRQAPGKGLEWVSSISTGSSYIDYADSVKGRFTISRDNSKNTLYLQMNSLRAEDTAVYYCAREKGHYYYGMDVWGQGTLVTVSS
VL: QSVLTQPPSASGTPGQRVTISCTGSSSNIGAGYDVHWYQQLPGTAPKLLIYGNSYRPSGVPDRFSGSKSGTSASLAISGLRSEDEADYYCQSYDTSLSAYVVFGGGTKLTVLG
notes: IgG
B10: 001-D01 (antibody, V domains shown)
VH: not shown
VL: QSVLTQPPSASGTPGQRVTISCSGSSSNIGSNTVNWYQQLPGTAPKLLIYGNSNRPSGVPDRFSGSKSGTSASLAISGLRSEDEADYYCQSYDSSLSASVFGGGTKLTVLG
notes: IgG
B11: 001-B05 (antibody, V domains shown)
VH: EVQLLESGGGLVQPGGSLRLSCAASGFTFSNAWMSWVRQAPGKGLEWVSSISSASGYIYYGDSVKGRFTISRDNSKNTLYLQMNNLRAEDTAVYYCARGTLYGDFDEFWGQGTLVTVSS
VL: QSVLTQPPSASGTPGQRVTISCSGSSSNIGNNAVNWYQQLPGTAPKLLIYGNTNRPSGVPDRFSGSKSGTSASLAISGLRSEDEADYYCQSYDSSLSGYVVFGGGTKLTVLG
notes: IgG
B12: 001-C05 (antibody, V domains shown)
VH: EVQLLESGGGLVQPGGSLRLSCAASGFTFSSNEMSWIRQAPGKGLEWVSVIYSGGSTYYADSVKGRFTISRDNSKNTLYLQMNSLRAEDTAVYYCARREGWLVPFDYWGQGTLVTVSS
VL: QSVLTQPPSASGTPGQRVTISCSGSSSNIGSNTVNWYQQLPGTAPKLLIYGNIIRPSGVPDRFSGSKSGTSASLAISGLRSEDEADYYCQSFDTTLSGSIVFGGGTKLTVLG
notes: IgG
B13: 005-B02 (antibody, V domains shown)
VH: EVQLLESGGGLVQPGGSLRLSCAASGFTFSDYYMSWIRQAPGKGLEWVALIWYDGGNEYYADSVKGRFTISRDNSKNTLYLQMNSLRAEDTAVYYCVRETGNYGMDVWGQGTLVTVSS
VL: QSVLTQPPSASGTPGQRVTISCTGSSSNIGAGYDVHWYQQLPGTAPKLLIYRNNQRPSGVPDRFSGSKSGTSASLAISGLRSEDEADYYCATWDDRVNGPVFGGGTKLTVLG
notes: IgG
B14: 001-A09 (antibody, V domains shown)
VH: EVQLLESGGGLVQPGGSLRLSCAASGFTFSSNYMSWVRQAPGKGLEWVSVISGSGGSTYYADSVKGRFTISRDNSKNTLYLQMNSLRAEDTAVYYCARDRGWFDPWGQGTLVTVSS
VL: QSVLTQPPSASGTPGQRVTISCSGSRSNIDNSYVSWYQQLPGTAPKLLIYRNNQRPSGVPDRFSGSKSGTSASLAISGLRSEDEADYYCATWDDSLSGPVFGGGTKLTVLG
notes: IgG

How the values were obtained:
[1] = biological target: T1, hTNFRII (Sinobioologicals Cat …); experiment: blocking ELISA, coated hTNFRII, competitor hTNF-α-bio 5 nM
Description: 96-well plates were coated with hTNFRII (Sinobioologicals Cat nr10414-H08H) or mTNFRII (Sinobioologicals Cat No. 50128 M08H) at 2.5 pmol/well in ELISA coating buffer (0.1 M sodium carbonate pH 9.5) and incubated overnight at 4° C. After washing in ELISA wash buffer (PBS with 0.05% Tween20), the plates were incubated under slow agitation for 1 h in room temperature with n-CoDeR® mAbs at 10 μg/ml (one-dose ELISA) or 33 nM and subsequent 1:2 dilutions (titration ELISA) in block buffer containing 0.45% fish gelatin. […] Thereafter, plates were washed. For the human ELISAs, Streptavidin-HRP (Jackson Cat No. 016-030-084) diluted 1:2000 in block buffer were added and again incubated for 1 h at room temperature followed by washes first in ELISA buffer and then in Tris buffer (pH 9.8). The substrate (Super Signal ELISA Pico from Thermo Scientific Cat. No. 37069) were thereafter diluted according to the manufacturers instruction, added to the wells and incubated in darkness for 10 min before reading in a Tecan Ultra. […] After washing, anti-Rabbit-HRP diluted 1:10 000 in block buffer was added and again incubated for 1 h at room temperature. Substrate adding and reading were performed as above.

[2] = biological target: T2, recombinant human TNFR2-Fc protein …; experiment: ELISA, coated TNFR2-Fc
Description: 96-well plates (Lumitrac 600 LIA plate, Greiner) were coated overnight at 4° C. with recombinant human or mouse TNFR2-Fc protein (Sino Biological) at 1 pmol/well. After washing, titrated doses of anti-TNFR2 mAbs from 20 μg/ml to 0.1 ng/ml (133 nM to 1 pM) were allowed to bind for 1 hour. Plates were then washed again, and bound antibodies were detected with an anti-human-F(ab)-HRP secondary antibody (Jackson ImmunoResearch) diluted in 50 ng/ml. Super Signal ELISA Pico (Thermo Scientific) was used as substrate and the plates were analyzed using Tecan Ultra Microplate reader.

[3] = biological target: T3, wild type, full length human TNFR2 (on …); experiment: FACS, activated CD4+ T cells
Description: The ability and affinity of TNFR2 n-CoDeR® antibodies to bind TNFR2 expressed on cells were obtained using in vitro activated CD4⁺ T cells. Human CD4⁺ T cells were stimulated with 50 ng/ml rhIL-2 (R&D systems) and Dynabeads® T-Activator CD3/CD28 for T-Cell Expansion and Activation (Gibco) 2-3 days at 37 degrees. […] Cells were then incubated with an APC conjugated a-human IgG secondary ab (Jackson) followed by analysis by flow cytometry (FACSVerse, BD).

| Binder | EC50 [1] [nM] | EC50 [2] [nM] | EC50 [3] [nM] |
| --- | --- | --- | --- |
| B1 | 0.8 | 0.26 | 36 |
| B2 | 0.03 | 0.22 | 32 |
| B3 |  | 0.38 | 2.3 |
| B4 | 0.9 | 0.29 | 1.1 |
| B5 | 0.3 | 0.2 | 4.1 |
| B6 | 1.1 | 0.082 | 2.6 |
| B7 | 1 | 0.25 | 27 |
| B8 | 1.4 | 0.3 | 16 |
| B9 |  | 0.18 | 29 |
| B10 | 1.4 | 0.37 | 3.9 |
| B11 |  | 0.23 | 1.5 |
| B12 |  | 0.38 | 12 |
| B13 | 0.2 | 0.15 | 0.8 |
| B14 |  | 4.4 | 48 |
